Our source for the Kd, koff and kon values is paper PMC3753320.

pKd: −log10 of the molar value. Read-outs that look alike come from different tables or passages of the source.

Test [1] has as its target Recombinant human transforming growth factor-β1 (TGF-β1) (human) (UniProt P01137). Kind of test: SPR; Biacore T-100, CM5 chip, amine coupling, HBS-EP running buffer; TGF-β immobilised as ligand, Spp24 proteins as analytes; five concentrations of each analyte; kinetic constants by the manufacturer's software. Background: SPR reads the build-up and loss of mass on a sensor chip optically.

The target in another test is rhTGF-β (Homo sapiens) (UniProt P01137). The test is described as follows: SPR. Particulars: cited from earlier work.
Sequence of rhTGF-β (Homo sapiens) (P01137 279-390): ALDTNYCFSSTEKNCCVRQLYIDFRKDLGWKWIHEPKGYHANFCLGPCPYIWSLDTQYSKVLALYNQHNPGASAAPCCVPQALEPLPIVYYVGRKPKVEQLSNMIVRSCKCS
Test [2] concerns the target rhOP-1 (BMP-7) (Homo sapiens) (UniProt P18075). The test is described as follows: SPR. To be noted: cited from earlier work.
Test [3] addresses rhBMP-2 (Homo sapiens) (UniProt P12643). Kind of test: SPR. Particulars: cited from earlier work.
Test [4] has the same target. Particulars: cited from earlier work.
The next test has as its target TGF-β1 (Homo sapiens) (UniProt P01137). Particulars: cited from earlier work.
Test [5] deals with rhBMP-2 (Homo sapiens) (UniProt P12643). To be noted: cited from earlier work. The source holds these as a separate data set.
Sequence of rhBMP-2 (Homo sapiens) (P12643 283-396): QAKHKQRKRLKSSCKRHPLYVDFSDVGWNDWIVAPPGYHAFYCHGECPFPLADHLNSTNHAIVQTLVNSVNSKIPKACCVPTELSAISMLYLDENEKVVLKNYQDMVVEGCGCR

Sequence of Spp14.5, C-terminal truncation product of Spp24 (domain or fragment) (Q27967 24-203): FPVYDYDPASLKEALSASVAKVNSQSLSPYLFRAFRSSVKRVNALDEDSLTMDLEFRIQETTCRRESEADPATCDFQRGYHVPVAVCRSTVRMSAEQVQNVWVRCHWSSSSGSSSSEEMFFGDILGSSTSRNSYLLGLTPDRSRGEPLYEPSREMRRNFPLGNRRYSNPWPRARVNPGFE
Sequence of Spp18.1, C-terminal truncation product of Spp24 (domain or fragment) (Q27967 24-203): as above
Sequence of Spp16.0, C-terminal truncation product of Spp24 (domain or fragment) (Q27967 24-203): as above
Sequence of Recombinant human transforming growth factor-β1 (TGF-β1) (human) (P01137 279-390): as the sequence (P01137 279-390) above
Sequence of fetuin TRH1 peptide (P12763 114-133): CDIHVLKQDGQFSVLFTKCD
Sequence of rhOP-1 (BMP-7) (Homo sapiens) (P18075 293-431): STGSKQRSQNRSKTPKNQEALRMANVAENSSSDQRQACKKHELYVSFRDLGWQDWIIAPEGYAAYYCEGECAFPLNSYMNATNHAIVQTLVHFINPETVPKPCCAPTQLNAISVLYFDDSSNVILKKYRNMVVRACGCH
Sequence of TGF-β1 (Homo sapiens) (P01137 279-390): as the sequence (P01137 279-390) above

What is called pKd is the Kd on a negative log10 scale, so that one unit is a factor of ten. As a reminder, the koff is the first-order rate constant of dissociation. The term kon denotes the second-order rate constant of association. “Spp14.5, C-terminal truncation product of Spp24 (domain or fragment)”: in test [1], the negative-log Kd (pKd) is 5.85, the koff worked out at 0.00589 s⁻¹ and the on-rate (kon) came to 4180 M⁻¹ s⁻¹.

On to “Spp16.0, C-terminal truncation product of Spp24 (domain or fragment)”, for which, in test [1], the pKd is 5.49, the koff turned out to be 0.0122 s⁻¹ and the association rate constant (kon) was found to be 5550 M⁻¹ s⁻¹.

As to “BMP Binding Peptide (BBP) TRH1 domain (from UniProt Q27967)”, the pKd was 7.17 with rhTGF-β (Homo sapiens), 7.94 in test [2] and 7.27 with rhBMP-2 (Homo sapiens) [3].

As to fetuin TRH1 peptide, the pKd with rhBMP-2 (Homo sapiens) [4] was 5.62; with TGF-β1 (Homo sapiens) it was under 5.00.

Consider “Spp18.1, C-terminal truncation product of Spp24 (domain or fragment)”, for which, in test [1], the pKd was 5.86, the koff stood at 0.0106 s⁻¹ and the kon amounted to 10000 M⁻¹ s⁻¹.

Take Spp24 TRH1 peptide (BBP): the pKd in the test with rhBMP-2 (Homo sapiens) [5] was 4.52.
